EC50 data for 25 molecules are collected here from patent US20240218057A1 (ROCKEFELLER UNIVERSITY, published 2024).

Residue numbers refer to the chain shown, from its start.

This assay has as its target T1, SARS-COV-2 RBD (SARS-COV-2, UniProt P0DTC2 319-539).
T1 construct: also called WT RBD
The assay is described as follows: ELISA, RBD coated on plate. Background: ELISA stands for enzyme-linked immunosorbent assay.

B1: C927 (antibody, V domains shown)
VH: QVQLVESGGGVVQPGRSLRLSCVASGFTFSYFDMHWVRQAPGKGLEWVALISHDGSTTFYGDSARGRFTISRDNSRNTLDLQMNSLRPEDTAVYFCAKPVDAAMFDFWGQGTLVTVS
VL: SYELTQPPSVSVAPGKTARITCGGNNIGSKSVHWYQQRPGQAPVLVIYYDSDRPSGIPERFSGSNSGNTATLTISRVEAGDEADFYCQVWDRSTNHLVVFGGGTQLTVL
A word on the EC50: it is the concentration needed to bring the measured effect to its halfway point. With B1, it took 3.77 ng/mL to reach a half-maximal effect (EC50).

B2: C943 (antibody, V domains shown)
VH: QVQLVESGGGVVQPGRSLRLSCAASGFPFSSFGMHWVRQAPGRGLEWVALILYDGDNKYYADSVKGRFTISRDNSKNTLYLQMNSLRAEDTAVYYCAKDIGGGSSPPFFDYWGQGTLVTVSS
VL: SYELTQAPSVSLAPGKTARITCGENNIGSKSVHWYQQKPGQAPVLVIYYDSDRPSGIPERFSGSNSGNTATLTISRVEAGDEADYYCQVWDSSSDHVMFGGGTKLTVL
The molecule B2 returned an EC50 of 2.59 ng/mL. This EC50 and that of the molecule before are within 1.5-fold of each other.

B3: C938 (antibody, V domains shown)
VH: QVQLVESGGGVVQPGRSLRLSCAASGFTFRSHAMHWVRQAPGKGLEWVAIISSDGFNKYYADSVKGRFTISRDNSKNTLYVHMNSLRVEDTAIYYCASGLLWFETREISGAPDYGMAVWGQGATVTVSS
VL: DIQMTQSPSSLSASVGDRVTITCRASQNISNFLNWYQQKPGKAPKLLIYAASSLQSGVPSRYSGSGSGTDFTLTISSLQAEDFATYYCQQSYSTPLTFGGGTKVEIK
B3 yielded a 50% effective concentration (EC50) of 2.63 ng/mL. This EC50 and that of the molecule before are within 1.5-fold of each other.

B4: C942 (antibody, V domains shown)
VH: QVQLVESGGGVVQPGRSLRLSCAASGFTFSSYVMHWVRQAPGKGLEWVAIISSDGNTKYYADSVKGRFTISRDNSKNTLYLQMNSVRTDDTAVYYCARDGTTMTPTDLLTDWGQGTLVTVSS
VL: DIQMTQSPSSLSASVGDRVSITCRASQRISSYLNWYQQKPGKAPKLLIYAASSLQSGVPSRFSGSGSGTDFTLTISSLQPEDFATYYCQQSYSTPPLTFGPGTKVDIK
For B4, the EC50 was found to be 1.35 ng/mL. Against the preceding molecule, the EC50 is about 1.9-fold lower.

B5: C926 (antibody, V domains shown)
VH: QVQLVESGGGVVQPGRSLRLSCAASGFGLITYSMHWVRQAPGKGLEWVGLISFDGNTTYYADSVRGRFTISRDNLANILYLQMNSLRPDDTALYYCARDKRGVIRGLLNFWGQGSLVTVSS
VL: DIVMTQSPDSLAVSLGERATINCKSSQSLLPSSNSNNYLAWYQQKSGQPPNLLIYWASTRESGVPDRFSGSGSETDFSLTISNLQAEDVAVYYCQQYYNTPHTFGGGTKVEI
Take B5: the EC50 is 4.72 ng/mL.

B6: C935 (antibody, V domains shown)
VH: QVQLVESGGGVVQPGRSLRLSCAATGFTFSSYGMHWVRQAPGKGLEWVALIWYDGSNQYYVDSVKGRFTISRDNSKKTLYLQMNSLRVEDTAVYYCARDFSNSDMVTLSDAFDIWGQGTMVTVSS
VL: DIQLTQSPSFLSASVGDRVTIACRASQGISSYSSYLAWYQQKPGKAPKLLIYAASTLQSGVPSRFSGSGSGTEFTLTISSLQPEDFATYYCQQLNSYPLFTFGPGTKVDIK
The molecule B6 registered an EC50 of 2.86 ng/mL.

B7: C931 (antibody, V domains shown)
VH: QVQLVESGGGVVQPGRSLRLSCAASGFSFSTYGMHWVRQAPGKGLEWVAVISFDGSQKYYGDSVKGRFTISRDNPKNTLDLQMNSLRAEDTAVYYCAKVVVRGVIISLYYGMDVWGQGTTVTVSS
VL: not shown
In the case of B7, the concentration giving a half-maximal response (EC50) was 2.57 ng/mL.

B8: C934 (antibody, V domains shown)
VH: QVQLVQSGAEVKKPGASVKVSCKASGYTFTDYYIHWVRQAPGQGLEWMGWINPNSGGTNYAQKFQGRVTMTRDTSISTAYMDLSRLRSDDTAVYYCARDVIITMGRGVVFRMDVWGQGTTVTVSS
VL: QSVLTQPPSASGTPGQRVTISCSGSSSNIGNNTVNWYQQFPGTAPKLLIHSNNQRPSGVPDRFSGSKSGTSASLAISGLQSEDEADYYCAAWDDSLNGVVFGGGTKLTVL
Consider B8, for which a half-maximal response (EC50) required 0.95 ng/mL. Compared with the last molecule, the EC50 is about 2.7-fold lower.

B9: C924 (antibody, V domains shown)
VH: QVQLVESGGGVVQPGRSLRLSCAASGFTFSSYGMHWVRQAPGKGLEWVAVISDDGSNKYYADSVKGRFTISRDNSKNTLYLQMNSLRAEDTAVYYCAKSWWLSENWFDPWGQGTLVTVSS
VL: EIVMTQSPATLSVSPGERATLSCRASQSVSSNLAWYQQKPGQAPRLLIYGASTRATGIPARFSGTGSGTEFTLTISSLQSEDFAVYYCQQYNNWPLTFGGGTKVEIK
As to B9, the EC50 is 2.5 ng/mL.

B10: C925 (antibody, V domains shown)
VH: B9 VH with S31N, M34L, I51T, S56N, N57R, N74D, S85N, A88T
VL: B9 VL with S30R, K39R, S52F, G64V, T65S, S76D
Take B10: the EC50 was 2.26 ng/mL.

B11: C945 (antibody, V domains shown)
VH: QVQLVQSGAEVKKPGASVRISCKASGYTFTNYYMHWVRQAPGQGLEWMGIINPSGGSTTYAPKFQARVTMTRDTSTSTVYMELSSLRSDDTAVYYCARDYVLVPARSGMDVWGQGTTVTVS
VL: EIVLTQSPATLSLSPGERATLSCRASQSVSSYLAWYQQKPGQAPRLLIYDASNRATGIPARFSGSGSGTDFTLTISSLEPEDFAIYYCQQRSNWPYTFGQGTKLEIK
B11 gave a concentration giving a half-maximal response (EC50) of 3.13 ng/mL.

B12: C1041 (antibody, V domains shown)
VH: QVQLVQSGAEVKKPGASVKVSCKASGYTFSDHYIYWVRQAPGQGLEWMGIINPSAGSTSYAQKFQGRVTMTRDTSTSTVYMELSSLRSEDTAVYYCARDIVFVPATMAMDVWGLGTTVTVSS
VL: B11 VL with S31R, I85V, P95L, Y96F, Q100P, L104V, E105D
B12 yielded an EC50 of 3.65 ng/mL. The EC50 values of the last two molecules are within 1.5-fold of each other.

B13: C946 (antibody, V domains shown)
VH: QVQLVQSGAEVKKPGASVKVSCKASGYTFTNYYIHWVRQAPGQGLEWMGIINPDGDSTSYVQKFQGRVTMTRDTSTSTVYMELSSLRSEDTAVYYCARDLVFVPATSAMDVWGKGTTVTVSS
VL: B11 VL with I85V, P95L, Y96F, Q100P, L104V, E105D
As to B13, a half-maximal effect (EC50) was put at 3.82 ng/mL.

B14: C1042 (antibody, V domains shown)
VH: B12 VH with A55G, R87K, A97S, L114Q
VL: B11 VL with S31R, I85V, P95L, Y96F, Q100P, L104V, E105D
As for B14, the EC50 was found to be 4.55 ng/mL.

B15: C923 (antibody, V domains shown)
VH: QVQLVESGGGLVKPGGSLRLSCAASGFTFSDYHMTWIRQAPGKGLEWVSYISNRSTYRNYADSVKGRFTISRDNAKNSLYLQMNSLRAEDTAVYYCARDGGAYDRFDYWGQGTLVTVSS
VL: DIQMTQSPSSLSASVGDRVTITCQASQDIKKFLNWYQQKPGKAPKLLIYDASNLETGVPSRFSGSGSGTDLTFTISSLQPEDIATYYCQQYDNLPLTFGQGTKLEIK
Turning to B15, the midpoint of the response, the EC50, lay at 1.95 ng/mL.

B16: C929 (antibody, V domains shown)
VH: EVQLVESGGGLIQPGGSLRLSCAASGFTVSSNYMTWVRQAPGKGLEWVSVIYSGGTTYYADSVKGRFTISRDNSKNTLYLQMNSLRAEDTAVYYCARDLVVWGMDVWGQGTTVTVSS
VL: DIQLTQSPSFLSASVGDRVTITCRASQGISSYLAWYQQKPGKAPKLLIYAASTLQSGVPSRFSGSGSGTEFTLTISSLQPEDFATYYCQLLNSYPYTFGQGTKLEIK
Turning to B16, the 50% effective concentration (EC50) came to 2.07 ng/mL. The EC50 values of the last two molecules are within 1.5-fold of each other.

B17: C936 (antibody, V domains shown)
VH: B16 VH with T35S, T56S, Y58F, V100G, V101T, W102G, G103L, M104F, V106Y, T112L
VL: DIQLTQSPSFLSASVGDRVTITCRASQGISSYLAWYQQKPGKAPKLLIYAASTLQSGVPSRFSGSGSGTEFTLTISSLQPEDFATYYCQQLDSYPPGTFGPGTKVDIK
As to B17, the half-maximal effective concentration (EC50) worked out at 1.56 ng/mL.

B18: C937 (antibody, V domains shown)
VH: EVQLVESGGGLIQPGGSLRLSCAASELTVSSNYMSWVRQAPGKGLEWVSVIYPGGSTFYADSVKGRFTISRDNSKNTLYLQMNSLRAEDTAVYYCARDLGTGLFDYWGQGTLVTVSS
VL: B17 VL with Y87F, Q90L, D92N, Y94N
On to B18, for which the EC50 amounted to 0.97 ng/mL.

B19: C930 (antibody, V domains shown)
VH: B16 VH with I12F, S21A, F27I, T35S, A40P, S53A, T56S, Y58F, F67L, M82I
VL: B16 VL with L90Q, S93T
With B19, the EC50 came to 1.24 ng/mL.

B20: C928 (antibody, V domains shown)
VH: QVQLVESGGGVVQPGRSLRLSCAASGFTFSFFDMHWVRQAPGKGLEWVADISYDGSNQYYGDSVKGRFTISRDNSKSTLYLQMNSLRAEDTAVYYCAKPVDTAMFDSWGQGTLVTVSS
VL: SYELTQPPSVSVAPGETARITCGGNNIGHKSVHWYQQQPGQAPVLVIYYDSERPSGIPERFSGSNSGNTATLTISRVEAGDEADYHCQVWDGGNDHLVIFGGGTKLTVL
With B20, a half-maximal response (EC50) required 4.14 ng/mL.

B21: C941 (antibody, V domains shown)
VH: QVQLVQSGAEVKKPGSSVKVSCKASGGTSRSYPISWVRQAPGQGLEWMGRIIPIVGTANYAQRFQGRVTITADESTGTAYMELSSLRSEDTAVYYCARNRGYSDYGSVYYFDYWGQGTLVTVSS
VL: QSVLTQPPSVSGAPGQRVTISCTGSSSNIGAGYDVHWYQQLPGAAPKLLIYRNINRPSGVPDRFSGSKSGTSASLAITGLQADDEADYYCQSYDSSLSGSVFGGGTKLTV
Regarding B21, a half-maximal effect (EC50) was put at 0.88 ng/mL.

B22: C944 (antibody, V domains shown)
VH: QVQLVESGGGVVQPGRSLRLSCAASGFTFSSYGMHWVRQAPGKGLEWVAVISYDGSYKYYADSVKGRFTISRDNSKNTLYLQMNSLRAEDTAVYYCAKGSGSQLYYYYGMDVWGQGTTVTVSS
VL: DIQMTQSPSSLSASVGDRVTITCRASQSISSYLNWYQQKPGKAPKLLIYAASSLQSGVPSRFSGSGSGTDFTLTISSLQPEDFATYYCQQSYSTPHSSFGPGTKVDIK
As to B22, the EC50 stood at 1.71 ng/mL.

B23: C932 (antibody, V domains shown)
VH: QVQLVESGGSVVQPGKSLRLSCAGSGFAFSTYGMHWVRQAPGKGLEWVAVISSDGGNKYYADSVKGRFTISRDNYENTLYLQMNSLGAEDTAVYYCAKVALRGVFISLYYGMDVWGQGTTVTVSS
VL: SYELTQPPSVSVTPGQTASITCSGDKLGDKYACWFLQKPGQSPLLVIYQDTKRPSGIPDRLSGSKSGNTATLTISGTQAMDEADYYCQTWDSSAVVFGGGTKLTV
Consider B23, for which the EC50 was 3.57 ng/mL.

B24: C939 (antibody, V domains shown)
VH: QVQLVESGGGVVQPGRSLRLSCAASGFTFSSYAMHWVRQAPGKGLESVALISHDGSNKYHADSVKGRLTISRDTSKNTLYLQMDSLRPEDTAVYYCASGLLWFETAGGSGAPDYGMAVWGQGTTVTVSS
VL: DIQMTQSPSSLSASVGDRVTITCRASQSISTYLNWYQQKPGRAPKFLIYAASSLQSGVPSRFSGSGSGTDFTLIISGLQPEDFATYFCQQSYNTPLTFGGGTKVEIK
For B24, the half-maximal effective concentration (EC50) was 3.62 ng/mL.

B25: C940 (antibody, V domains shown)
VH: QVQLQESGSGLVKPSQTLSLTCAVSGGSASSGGYSWSWIRQPPGKGLEWIGYIYHSGSTYYNPSLKSRVTISLDRTKKQFSLKLSSVTAADTAVYYCARFCLSGSHYLFAFDIWGPGTMVTVSS
VL: QSALTQPASVSGSPGQSITISCTATSSDVGGYNFVSWYQQYPGKVPKLLIYDVGNRPSGVSNRFSGSKSGNTASLTISGLQAEDEADYYCSSYTNSSTFFGGGTKLTVL
Molecule B25 had an EC50 of 1.8 ng/mL.
